# Source: US20180155451A1 (published 2018)
# Positions count from the first letter of the chain named. Names and notes keep the numbering of the source.
# T1: FcgRIIb (human, UniProt P31994 43-217)
# T1 construct: extracellular domain; also called FcγRIIb; not shown: His tag attached to the C terminus
# T1 sequence (looked up): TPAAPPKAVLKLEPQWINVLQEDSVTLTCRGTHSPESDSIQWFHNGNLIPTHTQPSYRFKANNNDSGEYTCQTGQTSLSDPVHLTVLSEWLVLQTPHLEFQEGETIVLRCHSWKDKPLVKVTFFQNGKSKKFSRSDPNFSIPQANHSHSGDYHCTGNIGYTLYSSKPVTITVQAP
# T2: FcgRIIa R (human, UniProt P12318 34-217)
# T2 construct: extracellular domain; also called FcγRIIa R; FcγRIIa type R; not shown: His tag attached to the C terminus
# T2 sequence (looked up): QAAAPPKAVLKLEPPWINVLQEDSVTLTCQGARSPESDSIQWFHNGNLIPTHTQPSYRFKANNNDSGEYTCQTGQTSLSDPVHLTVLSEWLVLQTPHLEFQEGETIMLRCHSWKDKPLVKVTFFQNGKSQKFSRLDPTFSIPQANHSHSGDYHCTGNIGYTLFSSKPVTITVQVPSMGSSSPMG
# T3: FcgRIIa H (human, UniProt P12318 34-217)
# T3 construct: extracellular domain; also called FcγRIIa H; FcγRIIa type H; not shown: His tag attached to the C terminus
# T3 sequence (looked up): T2 sequence (looked up) with R134H
# T4: FcγRIIb extracellular domain with C-terminal His tag (human, UniProt P31994 43-217)
# T4 construct: extracellular domain; also called FcgRIIb; 2b; not shown: His tag at the C terminus
# T4 sequence (looked up): T1 sequence (looked up)
# B1: H240-Kn061 (A231E)/H240-Hl071/L73-k0 (antibody, human IgG1, kappa)
# heavy 1: QDQLVQSGAEVKKPGASVKVSCKASGFNIKDTYIQWVRQAPGQGLEWMGRIDPLRKQTKYREKFEGRVTITADTSTNTAYMELSSLRSEDTAVYYCVRSGREFDYWGQGTLVTVSSASTKGPSVFPLAPSSKSTSGGTAALGCLVKDYFPEPVTVSWNSGALTSGVHTFPAVLQSSGLYSLSSVVTVPSSSLGTQTYICNVNHKPSNTKVDKKVEPKSCDKTHTCPPCPEPEYYWGPSVFLFPPKPKDTLMISRTPEVTCVVVDVSDEDPEVKFNWYVDGVEVHNAKTKPREEQYNATYRVVSVLTVLHQDWLNGKEYKCKVSNKALPAPIEKTISKAKGQPREPQVCTLPPSRDELTKNQVSLWCLVKGFYPSDIAVEWESNGQPENNYKTTPPVLDSDGSFFLYSKLTVDKSRWQQGNVFSCSVMHEALHNHYTQKSLSLSP
# heavy 2: QDQLVQSGAEVKKPGASVKVSCKASGFNIKDTYIQWVRQAPGQGLEWMGRIDPLRKQTKYREKFEGRVTITADTSTNTAYMELSSLRSEDTAVYYCVRSGREFDYWGQGTLVTVSSASTKGPSVFPLAPSSKSTSGGTAALGCLVKDYFPEPVTVSWNSGALTSGVHTFPAVLQSSGLYSLSSVVTVPSSSLGTQTYICNVNHKPSNTKVDKKVEPKSCDKTHTCPPCPAPELLGGPSVFLFPPKPKDTLMISRTPEVTCVVVDVSHEDPEVKFNWYVDGVEVHNAKTKPREEQYNSTYRVVSVLTVLHQDWLNGKEYKCKVSNDALPMPIEETISKAKGQPREPQVYTLPPSRCELTKNQVSLSCAVKGFYPSDIAVEWESNGQPENNYKTTPPVLDSDGSFFLVSKLTVDKSRWQQGNVFSCSVMHEALHNHYTQKSLSLSP
# light: DIQMTQSPSSLSASVGDRVTITCRASQDIHKYIAWYQQKPGQAPRLLIQYTSTLQPGVPSRFSGSGSGTDYTFTISSLQPEDIATYYCLQYEQLRTFGGGTKVEIKRTVAAPSVFIFPPSDEQLKSGTASVVCLLNNFYPREAKVQWKVDNALQSGNSQESVTEQDSKDSTYSLSSTLTLSKADYEKHKVYACEVTHQGLSSPVTKSFNRGEC
# B2: H240-Kn061 (S239I)/H240-Hl071/L73-k0 (antibody, human IgG1, kappa)
# heavy 1: B1 heavy 1 with E230A, S238I
# heavy 2: B1 heavy 2
# light: B1 light
# B3: H240-Kn061 (A231V)/H240-Hl071/L73-k0 (antibody, human IgG1, kappa)
# heavy 1: B1 heavy 1 with E230V
# heavy 2: B1 heavy 2
# light: B1 light
# B4: H240-Kn061 (Y234I)/H240-Hl071/L73-k0 (antibody, human IgG1, kappa)
# heavy 1: B1 heavy 1 with E230A, Y233I
# heavy 2: B1 heavy 2
# light: B1 light
# B5: H240-Kn061 (S239V)/H240-Hl071/L73-k0 (antibody, human IgG1, kappa)
# heavy 1: B1 heavy 1 with E230A, S238V
# heavy 2: B1 heavy 2
# light: B1 light
# B6: H240-Kn061 (A231Q)/H240-Hl071/L73-k0 (antibody, human IgG1, kappa)
# heavy 1: B1 heavy 1 with E230Q
# heavy 2: B1 heavy 2
# light: B1 light
# B7: H240-Kn061 (S239L)/H240-Hl071/L73-k0 (antibody, human IgG1, kappa)
# heavy 1: B1 heavy 1 with E230A, S238L
# heavy 2: B1 heavy 2
# light: B1 light
# B8: H240-Kn061 (S239M)/H240-Hl071/L73-k0 (antibody, human IgG1, kappa)
# heavy 1: B1 heavy 1 with E230A, S238M
# heavy 2: B1 heavy 2
# light: B1 light
# B9: GpH7-A5/GpH7-B3 variant S239_06M/GpL16-k0 (antibody, human IgG1, kappa)
# heavy 1: not shown
# heavy 2: not shown
# light: DIVMTQSPLSLPVTPGEPASISCQASESLVHSNRNTYLHWYLQKPGQSPQLLIYKVSNRFSGVPDRFSGSGSGTDFTLKISRVEAEDVGVYYCSQNTHVPPTFGQGTKVEIERTVAAPSVFIFPPSDEQLKSGTASVVCLLNNFYPREAKVQWKVDNALQSGNSQESVTEQDSKDSTYSLSSTLTLSKADYEKHKVYACEVTHQGLSSPVTKSFNRGEC
# notes: Heterodimerized anti-glypican-3 IgG1; the substitution stands in the GpH7-B3 chain only; also called He Ab
# B10: GpH7-A5/GpH7-B3 variant S239_16H/GpL16-k0 (antibody, human IgG1, kappa)
# heavy 1: not shown
# heavy 2: not shown
# light: B9 light
# notes: as for B9
# B11: GpH7-A5/GpH7-B3 variant S239_11K/GpL16-k0 (antibody, human IgG1, kappa)
# heavy 1: not shown
# heavy 2: not shown
# light: B9 light
# notes: as for B9
# B12: GpH7-A5/GpH7-B3 variant S239_08L/GpL16-k0 (antibody, human IgG1, kappa)
# heavy 1: not shown
# heavy 2: not shown
# light: B9 light
# notes: as for B9
# B13: GpH7-A5/GpH7-B3 variant S239_19Q/GpL16-k0 (antibody, human IgG1, kappa)
# heavy 1: not shown
# heavy 2: not shown
# light: B9 light
# notes: as for B9
# B14: GpH7-A5/GpH7-B3 variant S239_07I/GpL16-k0 (antibody, human IgG1, kappa)
# heavy 1: not shown
# heavy 2: not shown
# light: B9 light
# notes: as for B9
# B15: GpH7-A5/GpH7-B3 variant S239_12R/GpL16-k0 (antibody, human IgG1, kappa)
# heavy 1: not shown
# heavy 2: not shown
# light: B9 light
# notes: as for B9
# B16: GpH7-A5/GpH7-B3 variant S239_15Y/GpL16-k0 (antibody, human IgG1, kappa)
# heavy 1: not shown
# heavy 2: not shown
# light: B9 light
# notes: as for B9
# Target: T5, FcgRIIIa F (human, UniProt P08637 17-208)
# T5 construct: extracellular domain; also called FcγRIIIa F; 3aF; not shown: His tag attached to the C terminus
# T5 sequence (P08637 17-208): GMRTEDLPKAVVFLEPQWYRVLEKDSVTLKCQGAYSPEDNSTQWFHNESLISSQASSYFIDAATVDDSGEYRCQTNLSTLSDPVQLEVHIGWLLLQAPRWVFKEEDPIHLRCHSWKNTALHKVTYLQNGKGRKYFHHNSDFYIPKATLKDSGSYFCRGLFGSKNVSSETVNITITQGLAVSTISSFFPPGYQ
# Assay: SPR (Biacore); KD of H240-Kn061/H240-Hl071/L73-k0 divided by KD of the variant
# Experimental: (§1) The antibodies were assessed for the binding to each FcgR. […] The resultant value was defined as relative KD, and used as an assessment indicator.
# (§2) Analysis of interaction between obj ective antibody and the FcγR was carried out using Biacore T100 (GE Healthcare), Biacore T200, Biacore A100, and Biacore 4000. HBS-EP+ (GE Healthcare) was used as the running buffer, and the measurement temperature was set to 25° C. Chips produced by immobilizing the antigen peptide by the amine coupling method to a Series S sensor Chip CM5 (GE Healthcare), chips produced by allowing preliminarily biotinylated antigen peptides to interact with and immobilize onto a Series S Sensor Chip SA (certified) (GE Healthcare), chips produced by immobilizing Protein L (ACTIGEN, BioVision) to Series S Sencor Chip CM5 (GE Healthcare), or chips produced by immobilizing Protein A/G (Thermo Scientific) to Series S Sencor Chip CM5 (GE Healthcare) were used. Antibodies of interest were captured onto these chips, and allowed to interact to each FcγR diluted with running buffer.
row,Binder,Relative KD
1,B1,1.8
2,B2,3
3,B3,1.3
4,B4,1.2
5,B5,2.4
6,B6,1.5
7,B7,3.4
8,B8,2.2

# Target: T1, FcgRIIb
# Assay: as above
# Experimental: as §1, §2
row,Binder,Relative KD
1,B1,1.4
2,B2,3.1
3,B3,1.6
4,B4,7.7
5,B5,3.4
6,B6,1.4
7,B7,3.4
8,B8,2.2

# Target: T6, FcgRIIIa V (human, UniProt P08637 17-208)
# T6 construct: extracellular domain; also called FcγRIIIa V; not shown: His tag attached to the C terminus
# T6 sequence (P08637 17-208 F176V limits assumed): as the sequence (P08637 17-208) above, with F160V counted along it
# Assay: as above
# Experimental: as §1, §2
row,Binder,Relative KD
1,B1,2
2,B2,3.4
3,B3,1.5
4,B4,1.3
5,B5,2.9
6,B6,1.7
7,B7,3.7
8,B8,2.8

# Target: T2, FcgRIIa R
# Assay: as above
# Experimental: as §1, §2
row,Binder,Relative KD
1,B1,1.7
2,B2,4.4
3,B3,1.6
4,B4,4.1
5,B5,4.2
6,B6,1.5
7,B7,4.8
8,B8,3.2

# Target: T3, FcgRIIa H
# Assay: as above
# Experimental: as §1, §2
row,Binder,Relative KD
1,B1,1.6
2,B2,2.1
3,B3,1.6
4,B4,2.6
5,B5,2.4
6,B6,1.5
7,B7,2.4
8,B8,2

# Target: T7, FcγRIIIa extracellular domain with C-terminal His tag (human, UniProt P08637 17-208)
# T7 construct: extracellular domain; also called FcgRIIIa; 3a; not shown: His tag at the C terminus
# T7 sequence (P08637 17-208): as the sequence (P08637 17-208) above
# Assay: SPR; He/Con_3a divided by He/Con_2b (binding to FcγRIIb is the reference)
# Experimental: Analysis of interaction between objective antibody and the FcγR was carried out using Biacore T100 (GE Healthcare). HBS-EP+ (GE Healthcare) was used as the running buffer, and the measurement temperature was set to 25° C. Chips produced by immobilizing the antigen peptide by the amine coupling method to a Series S Sencor Chip CM5 (GE Healthcare), or alternatively, chips produced by allowing preliminarily biotinylated antigen peptides to interact with and immobilize onto a Series S Sensor Chip SA (certified) (GE Healthcare) were used. Antibodies of interest were captured onto an antigen peptide-immobilized chip, and allowed to interact to each FcγR diluted with running buffer. To regenerate and repeatedly use the chip, the antibodies captured on the chip were washed off by reacting 10 mM glycine-HCl, pH 1.5.
# The FcγR-binding activity of each antibody was assessed primarily using as an indicator the FcγR-binding activity and dissociation constant for FcγR.
row,Binder,He_3a/2b (IIIa/IIb) [ratio]
1,B9,0.78
2,B10,0.59
3,B11,0.48
4,B12,0.68
5,B13,0.66
6,B14,0.74
7,B15,0.44
8,B16,0.73

# Target: T7, FcγRIIIa extracellular domain with …
# Assay: SPR (Biacore), antibody captured on antigen peptide chip, FcγR as analyte; relative binding amount
row,Binder,He/Con_3a
1,B9,78.2 % of GpH7-A5/GpH7-B3/GpL16-k0 (=100)
2,B10,29.2 % of GpH7-A5/GpH7-B3/GpL16-k0 (=100)
3,B11,11.9 % of GpH7-A5/GpH7-B3/GpL16-k0 (=100)
4,B12,95.3 % of GpH7-A5/GpH7-B3/GpL16-k0 (=100)
5,B13,56.9 % of GpH7-A5/GpH7-B3/GpL16-k0 (=100)
6,B14,79.3 % of GpH7-A5/GpH7-B3/GpL16-k0 (=100)
7,B15,17 % of GpH7-A5/GpH7-B3/GpL16-k0 (=100)
8,B16,25.6 % of GpH7-A5/GpH7-B3/GpL16-k0 (=100)

# Target: T4, FcγRIIb extracellular domain with …
# Assay: as above
row,Binder,He/Con_2b
1,B9,101 % of GpH7-A5/GpH7-B3/GpL16-k0 (=100)
2,B10,49.4 % of GpH7-A5/GpH7-B3/GpL16-k0 (=100)
3,B11,24.7 % of GpH7-A5/GpH7-B3/GpL16-k0 (=100)
4,B12,140 % of GpH7-A5/GpH7-B3/GpL16-k0 (=100)
5,B13,86.1 % of GpH7-A5/GpH7-B3/GpL16-k0 (=100)
6,B14,107 % of GpH7-A5/GpH7-B3/GpL16-k0 (=100)
7,B15,39.1 % of GpH7-A5/GpH7-B3/GpL16-k0 (=100)
8,B16,34.9 % of GpH7-A5/GpH7-B3/GpL16-k0 (=100)
